Assay results published in patent US20220265772A1, “USES OF DAN FAMILY BMP ANTAGONISTS FOR INHIBITING OCULAR NEOVASCULARIZATION AND TREATING OCULAR CONDITIONS” (9636137 Canada Inc., priority 2019, published 2022).

What was measured:
HUVECs [1] = assay: VEGF-induced tube formation (sprouting assay) of HUVECs in 3D fibrin gels; format: cell-based, human; conditions: for VEGF-induced tube formation: HUVECs in fibrin gel, 25 ng/ml VEGF, DAND5 0, 15, 30 or 60 ng/ml
Description: Sprouting assays were performed as previously described (2). Briefly, HUVECs (250,000 cells/well in 6-well plates) were resuspended in 300 μl fibrinogen solution (2.5 mg/ml fibrinogen, Sigma-Aldrich) in EBM-2 (Lonza) supplemented with 2% FBS and 50 μg/ml aprotinin (Sigma-Aldrich), and plated on top of a pre-coated fibrin layer (400 μl fibrinogen solution clotted with 1 U thrombin (Sigma-Aldrich) for 20 min at 37° C.). The second layer of fibrin was clotted for 1 hr at 37° C. NHDF cells (250,000 cells/well), in EBM-2 supplemented with 2% FBS and 25 ng/ml VEGF, with or without DAND5 (0, 15, 30 or 60 ng/ml), were then plated on top of the fibrin layers. Cultures were incubated at 37° C., 5% CO2.
To test whether DAND5 affects sprouting angiogenesis, human umbilical vein endothelial cells (HUVECs) were cultured in 3D fibrin gels and tube formation was induced with VEGF as previously described (2).

HUVECs [2] = assay: Scratch (wound healing) assay, endothelial cell migration; format: cell-based, human
Description: Confluent HUVEC monolayers were grown in 6-well plates. Cells were starved 18 hours in EBM-2 medium with 1% FBS. A horizontal wound was created using a sterile 200 μl pipette tip. Next, the cells were washed with EBM2 at 37° C. and incubated in EBM-2 supplemented with VEGF-A (25 ng/ml) or DAND5 (60 ng/ml) at 37° C. for 16 hours. Pictures of scratch wounds were taken just before stimulation (time 0) and after 16 h. Migration % was calculated using ImageJ™ software.
To evaluate the cellular mechanisms underlying the inhibitory effects of DAND5 on endothelial cells sprouting, we assessed the effects of DAND5 on endothelial cell migration and proliferation. Endothelial cell migration plays an essential role in neovascularization, as endothelial tip cells will need to migrate in response to VEGF, and constitutes one of the first steps of the angiogenic response. To address the effects of DAND5 on EC migration, HUVECs were subjected to a wound healing assay. Briefly, a scratch was performed on a confluent monolayer of HUVECs, and wound closure was evaluated at the time of the scratch and again after […].

HUVECs [3] = assay: Endothelial cell proliferation (phospho-histone H3, neutral red, EdU flow cytometry); format: cell-based, human
Description: Sub-confluent HUVECs were cultured overnight in starvation medium (EBM2-1% FBS) in the presence or absence of 60 ng/ml DAND5, followed by VEGF stimulation for 1 hour. HUVECs were subjected with a pulse of 5-ethynyl-2′-deoxyuridine (EdU) for 1 hour, and flow cytometry analysis of EdU incorporation was performed as previously described.
The effects of DAND5 on EC proliferation were assessed by treating sub-confluent HUVECs with complete EC medium for 18 hours with DAND5. Cell mitosis was measured by evaluating the proportion phospho-histone H3 (PH3)-positive ECs following DAND5 treatment.

HUVECs [4] = assay: Apoptosis of cultured endothelial cells (cleaved caspase 3); format: cell-based, human; conditions: HUVECs cultured for 18 hours
[5] = tested on: retinal vessels and photoreceptors; format: in vivo, mouse
Source text: FIG. 4 is a panel with a schematic, images and bar graphs showing that chronic intravitreal injections of Dand5 inhibits developmental angiogenesis but is not detrimental to photoreceptor survival. FIG. 4A: Schematic representation of experimental set-up (B-E). Neonatal pups received intravitreal injections of either PBS, Dand5, Flt1-Fc on P1, P7 and P14. Retinas were harvested on P28. FIG. 4B: Isolectin B4 staining of flatmount retinas (P28) described in FIG. 3A. FIG. 4C: Quantification of branch points and vessel length in retinas described in FIG. 3B (n=6 mice/group; *p<0.05, **p<0.01). FIG. 4D: Immunofluorescent images of sectioned retinas described in FIG. 3A stained with antibodies against s-opsin and rhodopsin and DAPI (nuclei). FIG. 4E: Quantification of the number of nuclei present in the outer nuclear layer of retinas treated as described in (4A) (n=4, ns). Patients affected by ocular neovascular diseases such as retinopathy of prematurity (ROP) and wet AMD are typically treated with VEGF inhibitors to control pathological angiogenesis. […] Particularly, studies have shown that long-term treatment with VEGF inhibitors in mice leads to increased photoreceptor apoptosis and thinning of the neural retina (4). We therefore addressed the long-term effects of DAND5 on photoreceptors and the neural retina. […]

LDHA = assay: AMPLI-seq transcriptome analysis of HUVECs; format: cell-based, human; conditions: HUVECs treated for 6 and 16 h
Description: FIG. 7 is a panel with a schematic and graphs showing that DAND5 modifies the metabolic transcriptional program in cultured endothelial cells. HUVECs were treated for 6 and 16 h with either PBS or DAND5, before RNA extraction. RNA was reverse-transcribed and cDNA amplified using IonTorrent Ampliseq™ Transcriptome Human Gene Expression kit. FIG. 7A: Heat map of metabolism-related genes.
We performed AMPLI-seq analysis of HUVECs exposed or not to recombinant DAND5. […] Lactate de-hydrogenase A (LDHA) regulates lactate metabolism during anaerobic respiration.

B1: DAND5: human recombinant DAND5/COCO biologically active fragment produced in E. coli, predicted 18.2 kDa monomer, R&D systems 3047-CC-050 (protein)
chain: MRPEPQSPRPQSWAAANQTWALGPGALPPLVPASALGSWKAFLGLQKARQLGMGRLQRGQDEVAAVTLPLNPQEVIQGMCKAVPFVQVFSRPGCSAIRLRNHLCFGHCSSLYIPGSDPTPLVLCNSCMPARKRWAPVVLWCLTGSSASRRRVKISTMLIEGCHCSPKA
VEGF-induced tube formation (HUVECs [1]): efficiently suppressed VEGF-induced tube formation in a dose-dependent manner | VEGF-induced tube formation (HUVECs [1]; listed as Dand5): inhibited tube formation in a dose dependent manner | vascular tube area (HUVECs [1]; quantification of endothelial tubes, increasing concentrations of DAND5): significant reduction in vascular tube area with increasing concentrations | polarization of the Golgi apparatus towards the leading edge (HUVECs [2]; cells at the wound edge): did not significantly affect polarization of the Golgi apparatus towards the leading edge | wound closure (VEGF-induced cell migration) (HUVECs [2]; confluent HUVEC monolayer, DAND5 60 ng/ml, evaluated after 18 hours): significantly delayed wound closure compared to control treatment | EdU incorporation (HUVECs [3]; HUVECs, 60 ng/ml DAND5 overnight, VEGF stimulation): reduced Edu incorporation in response to VEGF stimulation | proliferation of cultured ECs, cell numbers by neutral red incorporation (HUVECs [3]; HUVECs, 6 days): prevented the proliferation of cultured ECs | phospho-histone H3 (PH3) staining, mitotic index (HUVECs [3]; sub-confluent HUVECs, complete EC medium, 18 hours): significant decrease in PH3 staining | proportion of cleaved caspase 3 (CC3)-positive cells (HUVECs [4]): did not show differences in the proportion of cleaved caspase 3 (CC3)-positive cells | photoreceptor apoptosis (cleaved-caspase 3 staining) ([5]; mouse, in vivo): did not reveal significant apoptosis | retinal blood vessel formation / density of retinal vessels ([5]; repeated injections from P1 for 4 weeks): striking reduction in blood vessel formation | LDHA expression (LDHA): down-regulation of LDHA
